{
  "source": "patent US20230134571A1",
  "about": "(INTERNATIONAL AIDS VACCINE INITIATIVE, published 2023)",
  "binders": {"B1": {"name": "ePGDM9 (antibody, V domains shown)", "VH": "QAQLVQSGPEVRKPGTSVKVSCKNPGNTLTTYDLHWVRQVPGQGLQWMGWISHEGDKKVIVERFKAKVTIDWDRSTNTAYLQLSGLTSEDTAVYYCAKGSKHRLRDYALYDEDGALNWAVDVDYLANLEFWGQGTAVTVSS", "VL": "DIVLTQSPLSLSVTPGESASISCKSSQSLIHGDRNNYLAWYVQKPGRSPQLLIDLASERASGVPDRFSGSGSRKDFTLKISRVETEDVGTYYCMQGRESPWTFGQGTKVDIK"}},
  "experiment_in_all_cases": "cell-based or functional assay",
  "key": {"[1]": {"molecular_target": "HIV Env, isolate 20915593 (HIV)"}, "[2]": {"molecular_target": "HIV Env, isolate 20965238 (HIV)"}, "[3]": {"molecular_target": "HIV Env, isolate 21197826_V1 (HIV)"}, "[4]": {"molecular_target": "HIV Env, isolate 2768732_C5_16 (HIV)"}, "[5]": {"molecular_target": "HIV Env, isolate 20286961_C1_H8 (HIV)"}, "[6]": {"molecular_target": "HIV Env, isolate 21203310_G7_C3 (HIV)"}, "[7]": {"molecular_target": "HIV Env, isolate 21502011_F12_E2 (HIV)"}, "[8]": {"molecular_target": "HIV Env, isolate 21561324_D3_B5 (HIV)"}, "[9]": {"molecular_target": "HIV Env, isolate 19314479_A2_5 (HIV)"}, "[10]": {"molecular_target": "HIV Env, isolate 569-F1_37_10 (HIV)"}, "[11]": {"molecular_target": "HIV Env, isolate CAP136.1.16_E6_1 (HIV)"}, "[12]": {"molecular_target": "HIV Env, isolate CAP266.2.00_E9_h6 (HIV)"}, "[13]": {"molecular_target": "HIV Env, isolate TRP307.2.00_24_1 (HIV)"}, "[14]": {"molecular_target": "HIV Env, isolate CT072_56_7 (HIV)"}, "[15]": {"molecular_target": "HIV Env, isolate CA146_H3_3 (HIV)"}, "[16]": {"molecular_target": "HIV Env, isolate CAP308.2.00_E11.35 (HIV)"}, "[17]": {"molecular_target": "HIV Env, isolate CAP323.2.00_B6.45 (HIV)"}, "[18]": {"molecular_target": "HIV Env, isolate 20417927.07 (HIV)"}, "[19]": {"molecular_target": "HIV Env, isolate 20358510.01 (HIV)"}, "[20]": {"molecular_target": "HIV Env, isolate 1170887.08 (HIV)"}, "[21]": {"molecular_target": "HIV Env, isolate B005018-8_F6.3 (HIV)"}, "[22]": {"molecular_target": "HIV Env, isolate CT565_C7.48 (HIV)"}, "MuLV (Neg. Control)": {"molecular_target": "MuLV (Neg. Control)"}, "[23]": {"molecular_target": "HIV Env, isolate Ce1172_H1 (HIV)"}, "[24]": {"molecular_target": "HIV Env, isolate Ce703010054_2A2 (HIV)"}, "[25]": {"molecular_target": "HIV Env, isolate ZM233M.PB6 (HIV)"}, "[26]": {"molecular_target": "HIV Env, isolate ZM249M.PL1 (HIV)"}, "[27]": {"molecular_target": "HIV Env, isolate CAP244.2.00.D3 (HIV)"}, "[28]": {"molecular_target": "HIV Env, isolate ZM215F.PB8 (HIV)"}, "[29]": {"molecular_target": "HIV Env, isolate 0041.v3.c18 (HIV)"}, "[30]": {"molecular_target": "HIV Env, isolate 0984.v2.c2 (HIV)"}, "[31]": {"molecular_target": "HIV Env, isolate 6040.v4.c15 (HIV)"}, "[32]": {"molecular_target": "HIV Env, isolate CeCAP210_TA5 (HIV)"}, "[33]": {"molecular_target": "HIV Env, isolate CeCAP177_1A3 (HIV)"}, "[34]": {"molecular_target": "HIV Env, isolate 235080_3G7env2(Rev-) (HIV)"}, "[35]": {"molecular_target": "HIV Env, isolate 705010185 (HIV)"}},
  "data": [
    {"binder": "B1", "values": [
      {"measurement": "IC50", "setting": "[1]", "value": 4, "unit": "ng/mL"},
      {"measurement": "IC80", "setting": "[1]", "value": 0.015, "unit": "µg/mL"},
      {"measurement": "IC50", "setting": "[2]", "value": "> 50", "unit": "µg/mL"},
      {"measurement": "IC80", "setting": "[2]", "value": "> 50", "unit": "µg/mL"},
      {"measurement": "IC50", "setting": "[3]", "value": 12.7, "unit": "µg/mL"},
      {"measurement": "IC80", "setting": "[3]", "value": 34.6, "unit": "µg/mL"},
      {"measurement": "IC50", "setting": "[4]", "value": 0.016, "unit": "µg/mL"},
      {"measurement": "IC80", "setting": "[4]", "value": 0.114, "unit": "µg/mL"},
      {"measurement": "IC50", "setting": "[5]", "value": 0.023, "unit": "µg/mL"},
      {"measurement": "IC80", "setting": "[5]", "value": "> 50", "unit": "µg/mL"},
      {"measurement": "IC50", "setting": "[6]", "value": 9.94, "unit": "µg/mL"},
      {"measurement": "IC80", "setting": "[6]", "value": "> 50", "unit": "µg/mL"},
      {"measurement": "IC50", "setting": "[7]", "value": "> 50", "unit": "µg/mL"},
      {"measurement": "IC80", "setting": "[7]", "value": "> 50", "unit": "µg/mL"},
      {"measurement": "IC50", "setting": "[8]", "value": 4, "unit": "ng/mL"},
      {"measurement": "IC80", "setting": "[8]", "value": 0.038, "unit": "µg/mL"},
      {"measurement": "IC50", "setting": "[9]", "value": "< 0.6", "unit": "ng/mL"},
      {"measurement": "IC80", "setting": "[9]", "value": 1, "unit": "ng/mL"},
      {"measurement": "IC50", "setting": "[10]", "value": "> 50", "unit": "µg/mL"},
      {"measurement": "IC80", "setting": "[10]", "value": "> 50", "unit": "µg/mL"},
      {"measurement": "IC50", "setting": "[11]", "value": "> 50", "unit": "µg/mL"},
      {"measurement": "IC80", "setting": "[11]", "value": "> 50", "unit": "µg/mL"},
      {"measurement": "IC50", "setting": "[12]", "value": 8, "unit": "ng/mL"},
      {"measurement": "IC80", "setting": "[12]", "value": 0.037, "unit": "µg/mL"},
      {"measurement": "IC50", "setting": "[13]", "value": "> 50", "unit": "µg/mL"},
      {"measurement": "IC80", "setting": "[13]", "value": "> 50", "unit": "µg/mL"},
      {"measurement": "IC50", "setting": "[14]", "value": 2, "unit": "ng/mL"},
      {"measurement": "IC80", "setting": "[14]", "value": 1.23, "unit": "µg/mL"},
      {"measurement": "IC50", "setting": "[15]", "value": "> 50", "unit": "µg/mL"},
      {"measurement": "IC80", "setting": "[15]", "value": "> 50", "unit": "µg/mL"},
      {"measurement": "IC50", "setting": "[16]", "value": 1, "unit": "ng/mL"},
      {"measurement": "IC80", "setting": "[16]", "value": 4, "unit": "ng/mL"},
      {"measurement": "IC50", "setting": "[17]", "value": 4, "unit": "ng/mL"},
      {"measurement": "IC80", "setting": "[17]", "value": 0.016, "unit": "µg/mL"},
      {"measurement": "IC50", "setting": "[18]", "value": 0.03, "unit": "µg/mL"},
      {"measurement": "IC80", "setting": "[18]", "value": 0.679, "unit": "µg/mL"},
      {"measurement": "IC50", "setting": "[19]", "value": 4, "unit": "ng/mL"},
      {"measurement": "IC80", "setting": "[19]", "value": 0.017, "unit": "µg/mL"},
      {"measurement": "IC50", "setting": "[20]", "value": 8, "unit": "ng/mL"},
      {"measurement": "IC80", "setting": "[20]", "value": 0.056, "unit": "µg/mL"},
      {"measurement": "IC50", "setting": "[21]", "value": "< 0.6", "unit": "ng/mL"},
      {"measurement": "IC80", "setting": "[21]", "value": 3, "unit": "ng/mL"},
      {"measurement": "IC50", "setting": "[22]", "value": "< 0.6", "unit": "ng/mL"},
      {"measurement": "IC80", "setting": "[22]", "value": 0.086, "unit": "µg/mL"},
      {"measurement": "IC50", "setting": "MuLV (Neg. Control)", "value": "> 50", "unit": "µg/mL"},
      {"measurement": "IC80", "setting": "MuLV (Neg. Control)", "value": "> 50", "unit": "µg/mL"},
      {"measurement": "IC50", "setting": "[23]", "value": 7, "unit": "ng/mL"},
      {"measurement": "IC80", "setting": "[23]", "value": 0.02, "unit": "µg/mL"},
      {"measurement": "IC50", "setting": "[24]", "value": 5, "unit": "ng/mL"},
      {"measurement": "IC80", "setting": "[24]", "value": 0.027, "unit": "µg/mL"},
      {"measurement": "IC50", "setting": "[25]", "value": "< 0.6", "unit": "ng/mL"},
      {"measurement": "IC80", "setting": "[25]", "value": 1, "unit": "ng/mL"},
      {"measurement": "IC50", "setting": "[26]", "value": 4, "unit": "ng/mL"},
      {"measurement": "IC80", "setting": "[26]", "value": 0.05, "unit": "µg/mL"},
      {"measurement": "IC50", "setting": "[27]", "value": 2.87, "unit": "µg/mL"},
      {"measurement": "IC80", "setting": "[27]", "value": 19.9, "unit": "µg/mL"},
      {"measurement": "IC50", "setting": "[28]", "value": "< 0.6", "unit": "ng/mL"},
      {"measurement": "IC80", "setting": "[28]", "value": 7, "unit": "ng/mL"},
      {"measurement": "IC50", "setting": "[29]", "value": "< 0.6", "unit": "ng/mL"},
      {"measurement": "IC80", "setting": "[29]", "value": 1, "unit": "ng/mL"},
      {"measurement": "IC50", "setting": "[30]", "value": 2.81, "unit": "µg/mL"},
      {"measurement": "IC80", "setting": "[30]", "value": "> 50", "unit": "µg/mL"},
      {"measurement": "IC50", "setting": "[31]", "value": "< 0.6", "unit": "ng/mL"},
      {"measurement": "IC80", "setting": "[31]", "value": 3, "unit": "ng/mL"},
      {"measurement": "IC50", "setting": "[32]", "value": 9, "unit": "ng/mL"},
      {"measurement": "IC80", "setting": "[32]", "value": 0.073, "unit": "µg/mL"},
      {"measurement": "IC50", "setting": "[33]", "value": 0.153, "unit": "µg/mL"},
      {"measurement": "IC80", "setting": "[33]", "value": 1.06, "unit": "µg/mL"},
      {"measurement": "IC50", "setting": "[34]", "value": 2, "unit": "ng/mL"},
      {"measurement": "IC80", "setting": "[34]", "value": 5, "unit": "ng/mL"},
      {"measurement": "IC50", "setting": "[35]", "value": 0.706, "unit": "µg/mL"},
      {"measurement": "IC80", "setting": "[35]", "value": 2.15, "unit": "µg/mL"}
    ]}
  ]
}
